B1: unnamed (protein)
chain: CGSDDDSAPGSPAGNEPFYAPDELGPFAVGRSTFTIVDADRGDRELPVDVWYPVDPEEATGAPSLYQVSILVWIFPLVFTTPSEVALDSPPVSEARRFPLIVFSHGSGGLRYQSFFLTEILASHGFVVVAPSHVGNTLLDEINGTFAPLTDMMVARPLDVSYLITRMLEKNEDAADPLYGTIDADRIGVCGHSFGGFTSLAMAAGFGADPPPDLDPEIPEDLEPVPPDPRVDAIVPIAPASSWFGDSELAGIDVPTLIIGGTLDTTTPIATENVRPYEMIPAPVFRADLDGAVHFSFSNSCDLIQGMREKGIPQALIDALLGAEFTAPCNPPSLDVEEAHRITNLYTVSLFETFLEDDSRYEKYLTEAYAEASEPNVTFYANPD
B2: unnamed (protein)
chain: APAGPYNVGYVIYDFPFVSPDGALQSLTTAVWYPTDAEPTPYTYGDGRATGLVSLDGPVSPAGRPFPLVVFSHGYGGGGTANLFLTKHLASWGFVVASPDYPDPDQMVRIRGGGTNTPILQYLRNALRLARTGLDFPFDDYAFRPAGLRTVIDQMLAQNADDTSALHGAIDPDRIAVAGHSLGTFTALSVAGLDPQWTDPRIRAVLALSGGVFMWPTQDFAQVSVPIMFMYGEREAGQRERIGLADVAALTRAAYDVCQPPKFMLEVKGGTHFTFGQRVYEERRAGGDASLPERQVAVINSYAAAFLRLYLRNDTSAAATLQQTDPMLTLYRHDM
B3: unnamed (protein)
chain: CGKDGGIMTQDVEFTSDDGVLLKGTLYLPAGISEKLPGVTLAHMNMNDRTSWAYYAEKLALEGYVVLAFDLRGWGESGGESDFHEMYRDVMAAVTYLANFGKVDRNRIASAGASMGGMASVIAASRTSSIKAVATVSSPPAWSESEPVKVIGKLPPRPVLVIAGSSDPHLDLRAARMLFLAAKEPRQWLEIKTNKHGTDIFATPQGVELERALAMFFAENLKDSGRSSTTEKDGK
B4: unnamed (protein)
chain: CGGGRVTPPDSPGEQMQAELAETLPEGGGREGRESDVAEVDREGESLDQGMDAEQTLPDAIGLTEEVGESGALYEAEGEAETIDGCDLADQGGEIEAWETLPPADVQQDEQLAAGTGDPFEWGPYEIGKKDYDFYDIQRMRLVPTTVWYPALPSGQSKAKYLLVVQGKAYVEPPAEPSGAPYPLVLFSHGYGGTRFQSVSYTEYLASHGYVVAAMDHIGNTFLDFFSDDAKVAQIALERPKDVRFVYQELVKLSNSGDGVMGGMVDQDRVAVTGHSFGGYTALVVAGAEIDVSEAIAACQSGAVSDIFCAYVEYWPAGEVIKLDPPIPGVQAAIYLAPGGYSAFGDQGLAAVKVPSMIFGGTLDDTCSVAVEIEPIYQALPPPKIEVLIQNGGHMSFTNLCDLPFAQFYLDKYCDVEGMIPAQQAFAVTNGLSVAFLDLYLKGVDAAAQYLTQEAVDEEFGYVELKAE
B5: unnamed (protein)
chain: MSRAFSFASVAALLVFFAASIWLARLDKGGPPHTELMLEGEVPATLYLPGDGEHREAFLDAPPRDERPPAVVMMHGFSGDRLSMSGISRRLAESGYAVLNIDARGHGQNRNPFSSSWAAPDLFYPDLLAAVEFLRAYPFVDGSRIAVMGHSMGAGASLDYASRDSAIGAAVLVSGGWRIQGPHRPPNTLFLYATGDPERIRGRSRQLAAGLAGVNDPEVGRTYGDPTRGDAVRLAEVAGADHQTIVWREAAVRETVAWLDATFGVARSPGPVPDDPRAPLLPLIWAAFLLVMVGLGQVVGRLVPAQPYRPGGGRIAGLAAIAAAFALTMPLLALGTPGFILSMEVGDVFVSHFALAGIVLLVAIRMREPELIDSLFAPRLLPTLIGAAVGTIGVFTLMRVFEPVMHRLTLTPERFLVFVMAALGLLPLALAFNLLLRRGTTAGATLTSLAGRVLVLLVLFAGVQVGILSMVMLFMLPALGFVCLQFEVLAAAIYASSRNLLALSLIDAAWLAMVIAAIMPIRI
B6: unnamed (protein)
chain: QSYEMGHRSEIYIDPSRGDRAIPTEIYYPSLTAGDDVPVADPPTGGFPVVAFAHGRMMPWDDYENIWGALAPQGFVVACPTTETGFMPNRTNFSLDLIYVISRIRLENSSATSPFYGKIGNASAVIGHSFGGVATFMAAIESDSITAIVTFASGQIDSVELAGISEPALIFAGTDDSLTPAATFQIPYYNNLGSSCKTLVNIIGGTHCHFAESSYYCDIGEAGFPPPGITRERQHELTNQFLIPWLDFMLNTDPVASDSFQTLLTTSGDILYLQDCDIMGVSRDDPTDLPGIIDLLAYPNPFNSAVRIGVERGEWRVENREIFDITGRMVAEIPAQSVIPDPDRESRGVVEGLDSRFHG
B7: unnamed (protein)
chain: SRTRQILTEIYYPADTAGEEVPVAEPGAEGFPAVSFAHGRRMAWSAYSNFWEMLAPQGYIIVFPCTEMGLSPNHLDFALDCLFDAHKLQELNDLGTSIFYQKVGDTFAVTGHSMGGVVSFIAAIEDPTVTAIANFACGQASSYDLASVTAPALIFAGSDDYMTPVDQYQLLFYNELSSTCKALLILQGANHCQYAQYTSVCDDIEDQYPDPALTRTQQHAVTSTLLIPWLDYMLKGDEEAWTEFNVLAGDGDVTETHMICDLPFNTPTPASPPTPFVPATSSGGIGTLIVVISGTLALLSSRRK
B8: unnamed (protein)
chain: QVYEIGHTTITFNDPSRSRDIETEIYYPADVAGENVAVSTGTFPVCVFGHGFTMSVDAYENFSDVLVPQGYIILLPSTEDGFSPNHDEFGLDLAFLVDEFQLENTNGTSLFYGAIAPETALMGHSMGGGCSFLAAESNSSVTTLVNFAAAETNTSAIAAAANITIPAVVFSGEVDPVAPPADHQIPMYNALASECKTYISINDGGHCYFANYNFYCTMGEEAMMPGGPPLTREEQQQTTLDFLSIWLDYTLKGNANALTVFNDSLASSPRITYQQDCNLTILDQINPNAEFKVYPNPADQFFILESSREIKHVLIYNSMGSICLERNKRHRIDISELPEGMYVIKAITESGSFTKKIMVLH
B9: unnamed (protein)
chain: CTDNADTDGADGAEGSATEEGGTEESGKESGEESKADLAALAAEVEEPGPWAVGTTTVETTGARDRQLPVQVWYPVDTAVAATAEPATYDFPGIEVPAGAVTGASPAPGPFPLVIYSHGNGGLRYVSSFLAEHMASHGFVVMAPDHVGNTALDTFLGSRDETDQVAEDRPVDVQAVIDAATSGQAGLEEVSPVVDGEEVAVIGHSFGGYTALALASRQAEGDDSLDAIVGLAPASSGVDDTTLEAVGVPTLLISGTLDETTPIEEDTLRPAELVSGRPLVRADIDGAGHQSFTDVCDYLGIAESQPDLPAALVEAPQEYALEGCAPELIVIDEAQRITNRLVTAFLLETLYADDSWSPLLSPGAEEGQPLALLERED
B10: unnamed (protein)
chain: MTKVNFQNKEEKRIVGILSIPKGKGPYPAVIFCHGLGSSKESPLIKTVSKKVRQVGFATFTFDCLGSRESDPYHSTAGITKRLSDLDAAIDFLAKHPRVDAERMGLYGHSLGGSVALVQASRDKRIKTAVLISPVIDFRRTGLRPINKKHMDEWDKREEILTINRKNKIVFRIPWDFFVDITSYDFVDIARKVACPVMIIHGTQDSLVPIQQSQILCQNLKNSELISLPWQKHFTRTTRKRKEAIVNSIFWFNKYLKKSATPSN
B11: unnamed (protein)
chain: WGAQNHFYETVLVDTDENPRETHLVGQIDGVFTDENYGEYEVTIYYPAINSGVSQPPDKSGAPYPAIIFAHGWLTSKELYTWIGNYCAAQGYVTLLFSVPDPTSLEAFRQSVTGITKSIDYLLVQNQGGLLSGLINTSRIGVMGHSMGAMAVLIATTEDSRIKAAVSLAPGYFGSTTKKYVEACKSIRVPIQFQAGSLDKICPPSAVETYYNAVRIPPKEIIVINGADHIQFSDAPATLWANITLEEQHETSRKYFIAWFNYYLRDDFNYYAYLFGSEARKDMENGILSSLEYVERFDC
B12: unnamed (protein)
chain: QSYQIGHTSIIYYDANRSNREIPTEIYYPAENEGDNVPVADPYSDGFPVISFGHGRMTTWSAYENIWSVLVQEGYIVAFACTEMSFIPNHTEFGLDIAFLVNRIQAEGIDSTSLFHGKIGTTSAVMGHSMGGATCFLSAQGNETITAITSFVSGNTSPSPIDAAVDITIPALLFSGSDDYMTPAEEYQIPIYEALNSDCKTLISITGGNHCQFAEYDYYCDTMEDNYPEPALTREEQHEVTNRFFISWVNFNLKGDFGAWYEFEDSLMTSEAITYMHDCDVTSVLEEPSETNIFMEYGLSNHPNPFNLTTTIKYELPKSAHISLKIYNISSKLIKTLVDEKENTGYNSVIWDGKDENGNPVPSGIYLYNIEIDGRVFSETKRMILLK

Key:
[1] = substrate: BHET; assay: Proxy for plastic degradation [HPLC-UV] (mmol); details: pH 8
[2] = substrate: PET; assay: Proxy for plastic degradation [HPLC-UV] (mmol)

| Protein | Proxy for plastic degradation [1] | Proxy for plastic degradation ([2]; pH 8, 30 °C) | Proxy for plastic degradation ([2]; pH 8, 60 °C) | other results |
| --- | --- | --- | --- | --- |
| B1 | 0 | 0 | 0 |  |
| B2 | 0 | 0 | 0 |  |
| B3 | 0 | 0 | 0 |  |
| B4 | 0.05 | 0 | 0 |  |
| B5 | 0 | 0 | 0 |  |
| B6 | 0 | 0 | 0 |  |
| B7 | 0 | 0 | 0 |  |
| B8 | 0 | 0 | 0 |  |
| B9 | 0 | 0 | 0 |  |
| B10 | 0.1 | 0 | 0 |  |
| B11 | 0 | 0 |  | Proxy for plastic degradation ([2]; pH 6): 0.11; Proxy for plastic degradation ([2]; pH 6.5): 0.96; Proxy for plastic degradation ([2]; pH 7): 0.47; Proxy for plastic degradation ([2]; pH 7.5): 0.4; Proxy for plastic degradation ([2]; pH 8, 40 °C): 0.39; Proxy for plastic degradation ([2]; pH 8, 50 °C): 2.78; Proxy for plastic degradation ([2]; pH 8, 70 °C): 0.05; Proxy for plastic degradation ([2]; pH 8, 80 °C): 0.04 |
| B12 |  | 0 | 0 |  |
